# Source: US20230287068A1, “KERATIN BD-6, PREPARATION METHOD THEREFOR AND PHARMACEUTICAL COMPOSITION AND USE THEREOF” (INSTITUTE OF MATERIAL MEDICA, CHINESE ACADEMY OF MEDICAL …, priority 2019, published 2023)
# B1: BD-6: recombinant keratin with the amino acid sequence SEQ ID NO:1, expressed in E. coli, about 45 kD; protein of Example 4 (protein, listed as Bos taurus)
# chain: MTTTIRHFSSGSIKGSSGLAGGSSRSCRVSGSLGGGSCRLGSAGGLGSGLGGSSYSSCYSFGSGGSYGSGGYVSGGYGGGFGGVDGLLVGGEKATMQNLNDRLASYLDKVRALEEANTELELKIRDWYQKQAPGPAPDYSSYFKTIEDLRNKIHTATVDNANLLLQIDNARLAADDFRTKFETEQALRVSVEADINGLRRVLDELTLARADLEMQIENLKEELAYLRKNHEEEMKALRGQVGGEINVEMDAAPGVDLSRILNEMRDQYEKMAEKNRKDAEDWFFSKTEELNREVATNSELVQSGKSEISELRRTLQALEIELQSQLSMKASLEGSLAETENRYCMQLSQIQGLIGSVEEQLAQLRCEMEQQNQEYKILLDVKTRLEQEIATYRRLLEGEDAHLTQYKTKEPVTTRQVRTIVEEVQDGRVISSREQVHQTSH
# Experiments:
# Format in all cases: in vivo, ICR mice
# [1] = test system: mice cough induced by ammonia water; assay: Antitussive test, cough induced by ammonia water in mice; conditions: for Incubation period (cough): 10% ammonia water 10 seconds; for Incubation period (cough) / Number of coughs: X±SEM; for Number of coughs: within 2 minutes
# Protocol: • Animals: male ICR mice; • Drugs and reagents: dextromethorphan hydrobromide, ammonia water, 0.2% CMC-Na, protein BD-6; • Apparatus: Compressed nebulizer (403T type), balance (XS105DU type). • Experiment grouping: • Solvent control group; • Dextromethorphan 15 mg/kg group; • Protein BD-6, 20 mg/kg group, 50 mg/kg group.
# Dextromethorphan and different doses of protein BD-6 (administration volume 10 ml/kg) were given orally in groups, and the solvent control group was given the same volume of distilled water. One hour later, mice were put into a sealed box and atomized 10% ammonia water for 10 seconds, and then observed and recorded the incubation period of cough in mice and the number of coughs in 2 minutes.
# Record the time point of oral administration, the time point of atomization experiment, the incubation period of mice cough and the number of coughs within 2 minutes, respectively. The incubation period of cough refers to the number of seconds from the start of the atomization of ammonia to the occurrence of cough. The performance of coughing in mice is based on contraction of their abdominal muscles (breast contraction) and opening their mouths at the same time. Calculate the mean and standard error of each group of data, and use TTEST to compare the model group with other groups, and P<0.05 is considered as a significant difference.
# [2] = test system: PTZ-induced epilepsy in mice; assay: Pentylenetetrazole (PTZ) induced epilepsy in mice; conditions: for Cases of deaths / Grade IV seizure rate / mortality rate / Cases of Grade IV / Grade III seizure incubation period / Grade IV seizure incubation period: PTZ 65 mg/kg i.p.; for Cases of deaths / Grade IV seizure rate / mortality rate / Cases of Grade IV: 10 mice; for Cases of Grade IV: 15 min observation; for Grade III seizure incubation period / Grade IV seizure incubation period: mean±SEM; for Grade IV seizure incubation period: maximum 900 seconds
# Protocol: • Animals: male ICR mice; • Medicines: Pentylenetetrazol (PTZ), Retigabine, Protein BD-6. • Experiment grouping: • Model group; • Retigabine 60 mg/kg group; • Protein BD-6, 50 mg/kg group, 200 mg/kg group;
# The drug was administered once in the afternoon the day before modeling, On the day of modeling, PTZ-65 mg/kg (modeling agent) was injected intraperitoneal 1 hour after the test drug was administered intragastrically, and the positive drug can be administered once half an hour before modeling. Continue to observe for 15 minutes after injection of PTZ.
# Observation index: ①Seizure situation: the time of seizures from Grade III to Grade VI; ②Death situation
# Seizure grade: Refer to Racine grading standard: Grade 0: No response; Grade I: manifested as twitching of facial muscles or the corners of the mouth; Grade II: can nod; Grade III: twitching of one limb; Grade IV: rigidity or body twitching; Grade V: generalized epilepsy (generalized tonic seizures).
# Count the cases of seizures and deaths in each group of mice in the experiment; Grade III and IV incubation period. The incubation period of mice that have not attacked to Grade IV is recorded as the maximum of 900 seconds. Chi-square test was used for statistics of the number of cases. Calculate the mean and standard error of the incubation period. Use TTEST to compare the model group with other groups, and P<0.05 is considered as a significant difference.
# [3] = test system: phenol red excretion method in mice; assay: Expectorant test, phenol red excretion method in mice; conditions: for Phenol red excretion: X±SEM, N=10
# Protocol: • Animals: male ICR mice; • Drugs and reagents: Mucosolvan (ambroxol hydrochloride tablets), phenol red, sodium bicarbonate, protein BD-6; • Instruments: centrifuge (Sigma-3K15 type), balance (XS105DU type), Microplate tester (BIO-TEK type). • Experiment grouping: • Solvent control group; • Mucosolvan 30 mg/kg group; • Protein BD-6, 20 mg/kg group, 50 mg/kg group.
# The animals were fasted and water was taken freely 16 hours before the experiment. Orally administered Mucosolvan and different doses of protein BD-6 (administration volume 10 ml/kg) in groups, and the solvent control group was given the same volume of distilled water. One hour later, 2.5% phenol red solution was injected intraperitoneally. Mice were sacrificed by neck dislocation after 30 minutes. Take a trachea from below the thyroid cartilage to the branch of the trachea, and put the trachea into 3 ml 5% NaHCO3 solution and let it stand for 3 hours. Take 1 ml of the supernatant and centrifuge at 3000 rpm for 5 minutes. Measure and record the absorbance at 546 nm. According to the standard curve of phenol red, the excretion of phenol red was calculated.
# Record the time point of oral administration, the time point of intraperitoneal injection of 2.5% phenol red solution, and the time point of taking the trachea respectively; The absorbance of each group of samples was measured by the microplate reader at 546 nm, Calculate the excretion of phenol red according to the standard curve of phenol red. Calculate the mean and standard error of the data in each group, and use TTEST to compare the solvent control group with other groups, and P<0.05 is considered as a significant difference.
# [4] = BD-6 20 mg/kg and 50 mg/kg, P<0.05
molecule,measurement,setting,value
B1,Number of coughs vs solvent control (in words),[1]; [4],significant improvement in the number of coughs
same,Incubation period (cough),[1]; BD-6 20 mg/kg oral,33.3±3.3^∗ s
same,Number of coughs,[1]; BD-6 20 mg/kg oral,45.9±4.8^∗
same,Cough incubation period vs solvent control (in words),"[1]; BD-6 20 mg/kg, P<0.05",significant improvement effect in the incubation period
same,Incubation period (cough),[1]; BD-6 50 mg/kg oral,30.6 ± 2.5 s
same,Number of coughs,[1]; BD-6 50 mg/kg oral,49.8±3.8^∗
same,Incubation period of Grade III epilepsy vs model group (in words),"[2]; BD-6 50 mg/kg and 200 mg/kg, PTZ model",have statistical differences compared with the model group
same,Cases of deaths,[2]; BD-6 50 mg/kg intragastric,0
same,Grade IV seizure rate,[2]; BD-6 50 mg/kg intragastric,60%
same,mortality rate,[2]; BD-6 50 mg/kg intragastric,0%
same,Cases of Grade IV,[2]; BD-6 50 mg/kg intragastric,6
same,Grade III seizure incubation period,[2]; BD-6 50 mg/kg intragastric,74±5^∗∗ s
same,Grade IV seizure incubation period,[2]; BD-6 50 mg/kg intragastric,440 ± 128 s
same,Cases of deaths,[2]; BD-6 200 mg/kg intragastric,1
same,Grade IV seizure rate,[2]; BD-6 200 mg/kg intragastric,90%
same,mortality rate,[2]; BD-6 200 mg/kg intragastric,10%
same,Cases of Grade IV,[2]; BD-6 200 mg/kg intragastric,9
same,Grade III seizure incubation period,[2]; BD-6 200 mg/kg intragastric,69±6^∗ s
same,Grade IV seizure incubation period,[2]; BD-6 200 mg/kg intragastric,201 ± 81 s
same,Excretion of phenol red vs solvent control (in words),[3]; [4],significantly increased the excretion of phenol red
same,Phenol red excretion,[3]; BD-6 20 mg/kg oral,0.789±0.115^∗ µg/ml
same,Phenol red excretion,[3]; BD-6 50 mg/kg oral,0.855±0.085^∗∗ µg/ml
